The target of the test is ACE-2 receptor on the surface of Vero-E6 cells (African green monkey (endogenous in Vero-E6)). Nature of the test: flow cytometry on cells.

As to “commercially available recombinant RBD (from UniProt P0DTC2) (domain or fragment)”, the percent of cells bound to RBD was 78%. In the case of “recombinant SARS-CoV-2 RBD (Pro330-Ser530) expressed in Sf9 insect cells (from UniProt P0DTC2 330-530) (domain or fragment)”, the percent of cells bound to RBD was 60%.

The values above are taken from paper doi:10.1101/2021.11.26.470043.
